Reference: paper PMC7010359, “High-resolution crystal structures of Escherichia coli FtsZ bound to GDP and GTP” (Acta Crystallographica. Section F, Structural Biology …, 2020)

Molecular target: the molecule itself
Test: crystal structure; hanging-drop vapor diffusion, 298 K, protein at 37 mg/ml with 1 mM GDP (1.35 Å) or 30 mg/ml with 1 mM GTP (1.40 Å); space group P2(1), one molecule in the asymmetric unit; filament generated by crystal packing

B1: E. coli FtsZ(L178E), truncated to the globular domain (residues 10-316) (domain or fragment, E. coli K-12, UniProt P0A9A6 10-316, looked up)
chain: DAVIKVIGVGGGGGNAVEHMVRERIEGVEFFAVNTDAQALRKTAVGQTIQIGSGITKGLGAGANPEVGRNAADEDRDALRAALEGADMVFIAAGMGGGTGTGAAPVVAEVAKDLGILTVAVVTKPFNFEGKKRMAFAEQGITELSKHVDSLITIPNDKLLKVLGRGISELDAFGAANDVLKGAVQGIAELITRPGLMNVDFADVRTVMSEMGYAMMGSGVASGEDRAEEAAEMAISSPLLEDIDLSGARGVLVNITAGFDLRLDEFETVGNTIRAFASDNATVVIGTSLDPDMNDELRVTVVATGIG
notes: FtsZ, E. coli K-12, globular domain, residues 10-316, with the mutation L178E; expressed from pET-11; Crystallized with 1 mM GDP (PDB 6umk) or 1 mM GTP (PDB 6unx); No tag is mentioned; One molecule in the asymmetric unit; the protofilament arises from crystal packing; also called EcFtsZ(L178E); source: E. coli BL21(DE3), purified (ammonium sulfate precipitation, Resource Q anion exchange)
- binding result: binds
